Paper PMC10112802

B1: KSHV viral interferon regulatory factor 1, wild type, Flag-tagged (vIRF1-WT-Flag) [modified: lysine propionylation at Lys406 and Lys442 and lysine acetylation, as found on vIRF1 … (parent)
chain 1: MDPGQRPNPFGAPGAIPKKPCLSQGSPGTSGSGAPCDEPSRSESPGEGPSGTGGSAAAGDITRQAVVAAITEWSRTRQLRISTGASEGKASIKDWIVCQVNSGKFPGVEWEDEERTRFRIPVTPLADPCFEWRRDGELGVVYIRERGNMPVDASFKGTRGRRRMLAALRRTRGLQEIGKGISQDGHHFLVFRVRKPEEEQCVECGVVAGAVHDFNNMARLLQEGFFSPGQCLPGEIVTPVPSCTTAEGQEAVIDWGRLFIRMYYNGEQVHELLTTSQSGCRISSALRRDPAVHYCAVGSPGQVWLPNVPNLACEIAKRELCDTLDACAKGILLTSSCNGIFCVCYHNGPVHFIGNTVPPDSGPLLLPQGKPTRIFNPNTFLVGLANSPLPAPSHVTCPLVKLWLGKPVAVGKLEPHAPSPRDFAARCSNFSDACVVLEIMPKPLWDAMQ
chain 2: MGTPKPRILPWLVSQLDLGQLEGVAWVNKSRTRFRIPWKHGLRQDAQQEDFGIFQAWAEATGAYVPGRDKPDLPTWKRNFRSALNRKEGLRLAEDRSKDPHDPHKIYEFVNSGVGDFSQPDTSPDTNGGGSTSDTQEDILDELLGNMVLAPLPDPGPPSLAVAPEPCPQPLRSPSLDNPTPFPNLGPSENPLKRLLVPGEEWEFEVTAFYRGRQVFQQTISCPEGLRLVGSEVGDRTLPGWPVTLPDPGMSLTDRGVMSYVRHVLSCLGGGLALWRAGQWLWAQRLGHCHTYWAVSEELLPNSGHGPDGEVPKDKEGGVFDLGPFIVDLITFTEGSGRSPRYALWFCVGESWPQDQPWTKRLVMVKVVPTCLRALVEMARVGGASSLENTVDLHISNSHPLSLTSDQYKAYLQDLVEGMDFQGPGES

Variants of: B1
Assay: co-immunoprecipitation (anti-Myc IP, anti-Flag Western blot)
Conditions: with Myc-tagged IRF3 (IRF3-Myc); HEK293T cells; parent: 1

Row | Variant | ratio to parent
1 | chain 1 K317R K329R K370R K401R K406R K412R K442R | 0.1
2 | chain 1 K406R | 0.5
3 | chain 1 K89R K93R K104R K156R K179R K195R | 0.7
4 | chain 1 K442R | 0.2
